Reference: patent publication US20230257458A1 (SUNSHINE LAKE PHARMA, published 2023)

Experiments:
IL-11 protein [1] = molecular target: T1, IL-11 protein (UniProt P20809 22-199, limits assumed); test: flow competition: IL-11 + antibody on IL-11R cells; lower = more blocking
T1 construct: also called IL-11 antigen
T1 sequence (looked up): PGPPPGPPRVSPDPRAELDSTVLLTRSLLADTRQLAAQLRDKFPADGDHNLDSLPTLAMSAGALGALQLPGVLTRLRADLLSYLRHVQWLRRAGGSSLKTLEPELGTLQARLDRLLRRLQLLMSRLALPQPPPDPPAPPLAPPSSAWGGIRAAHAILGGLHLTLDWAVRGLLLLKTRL
Source text: (§1) Cell lines with high secretion of specific antibody were selected for expanded culture and cryopreservation.

[2] = molecular target: T2, recombinant human protein antigen hu-IL-11-His tag (human, UniProt P20809 22-199); test: BLI, IL-11 (His tag) on Ni-NTA sensor, antibody as analyte
T2 construct: Expressed in CHO, Ni column and Superdex75; not shown: His tag
T2 sequence (looked up): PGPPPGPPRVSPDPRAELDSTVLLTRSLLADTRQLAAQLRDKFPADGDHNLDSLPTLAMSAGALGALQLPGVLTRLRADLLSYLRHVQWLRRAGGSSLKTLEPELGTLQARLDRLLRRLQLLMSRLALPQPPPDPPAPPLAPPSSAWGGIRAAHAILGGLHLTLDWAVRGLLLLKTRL
Method: Bio-Layer Interferometry (BLI) was used for binding affinity determination. […] The analytes were diluted in 7 concentration gradients, the binding time was 60 s and the dissociation time was 1000 s. The buffer was 20 mM PBS, 0.15M NaCl, 0.1% BSA, 0.05% Tween 20, pH 7.

IL-11-Fc protein = molecular target: T3, IL-11-Fc protein (UniProt P20809 22-199, limits assumed); test: flow competition: IL-11-Fc + antibody gradient on membrane-IL-11R CHO cells; 3-6A4 antibody
T3 construct: also called IL-11 recombinant protein with Fc tag; not shown: Fc tag
T3 sequence (looked up): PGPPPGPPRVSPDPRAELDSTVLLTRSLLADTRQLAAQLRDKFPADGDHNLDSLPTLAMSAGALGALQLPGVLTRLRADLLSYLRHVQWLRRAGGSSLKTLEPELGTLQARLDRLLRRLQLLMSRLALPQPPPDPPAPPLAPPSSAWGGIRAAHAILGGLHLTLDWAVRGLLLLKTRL
Source text: The secondary antibody used in the detection was a secondary antibody conjugated with a FITC fluorophore (Goat-anti-Fc-FITC) (Abcam, ab98529).

[3] = molecular target: T4, recombinant CLC (R&D systems, 962-CL-050) (UniProt Q9UBD9 28-225); test: ELISA, cytokine coated
T4 sequence (looked up): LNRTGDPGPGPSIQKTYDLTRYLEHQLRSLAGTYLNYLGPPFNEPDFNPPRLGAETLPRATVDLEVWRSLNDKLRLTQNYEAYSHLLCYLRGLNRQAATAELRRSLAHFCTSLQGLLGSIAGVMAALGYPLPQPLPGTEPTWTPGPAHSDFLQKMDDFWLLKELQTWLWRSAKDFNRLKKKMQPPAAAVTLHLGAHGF

[4] = molecular target: T5, recombinant IL-6 (Sinobiological-10395-HNAE) (UniProt P05231 30-212); test: ELISA, cytokine coated
[5] = molecular target: T6, recombinant CT-1 (R&D systems, 612-CD-010) (UniProt Q16619 2-201, limits assumed); test: ELISA, cytokine coated
T6 sequence (looked up): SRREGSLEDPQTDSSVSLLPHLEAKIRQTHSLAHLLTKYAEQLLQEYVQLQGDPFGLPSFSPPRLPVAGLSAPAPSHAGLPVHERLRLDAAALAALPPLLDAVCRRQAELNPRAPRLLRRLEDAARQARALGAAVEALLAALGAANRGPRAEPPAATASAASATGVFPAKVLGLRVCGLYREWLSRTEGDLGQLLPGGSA

[6] = molecular target: T7, recombinant IL-27 (R&D systems, 2526-IL-010) (UniProt Q8NEV9 29-243; Q14213 21-229); test: ELISA, cytokine coated
T7 sequence (looked up) 1: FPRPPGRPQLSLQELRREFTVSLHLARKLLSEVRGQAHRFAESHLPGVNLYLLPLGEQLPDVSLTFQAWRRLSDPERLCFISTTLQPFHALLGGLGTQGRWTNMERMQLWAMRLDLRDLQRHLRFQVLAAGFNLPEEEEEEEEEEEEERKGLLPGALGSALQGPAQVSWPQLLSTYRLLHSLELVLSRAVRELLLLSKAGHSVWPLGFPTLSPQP
T7 sequence (looked up) 2: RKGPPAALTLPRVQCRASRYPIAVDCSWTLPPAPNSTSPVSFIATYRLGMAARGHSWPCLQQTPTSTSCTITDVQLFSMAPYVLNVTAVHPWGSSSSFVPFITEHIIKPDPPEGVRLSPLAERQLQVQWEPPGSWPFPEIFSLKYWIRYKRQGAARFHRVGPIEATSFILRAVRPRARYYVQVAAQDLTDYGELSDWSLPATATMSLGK

[7] = molecular target: T8, recombinant LIF (Peprotech, 300-05) (UniProt P15018 23-202); test: ELISA, cytokine coated
[8] = molecular target: T9, recombinant OSM (Genscript-z03132) (UniProt P13725 26-234, limits assumed); test: ELISA, cytokine coated
T9 sequence (looked up): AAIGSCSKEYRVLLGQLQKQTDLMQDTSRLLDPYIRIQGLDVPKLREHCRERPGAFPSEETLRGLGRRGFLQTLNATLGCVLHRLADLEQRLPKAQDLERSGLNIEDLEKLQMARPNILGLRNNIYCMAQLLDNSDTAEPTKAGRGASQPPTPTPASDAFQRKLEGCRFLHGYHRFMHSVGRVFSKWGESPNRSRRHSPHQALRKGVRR

[9] = molecular target: T10, recombinant IL-31 (Peprotech, 200-31) (UniProt Q6EBC2 24-164); test: ELISA, cytokine coated
T10 sequence (looked up): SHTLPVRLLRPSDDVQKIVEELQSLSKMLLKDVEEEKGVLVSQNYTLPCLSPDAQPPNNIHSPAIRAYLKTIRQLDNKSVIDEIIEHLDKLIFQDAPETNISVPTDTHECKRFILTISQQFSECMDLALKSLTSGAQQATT

[10] = molecular target: T11, recombinant CNTF (R&D systems, 257-NT-010) (UniProt P26441 2-200); test: ELISA, cytokine coated
T11 sequence (looked up): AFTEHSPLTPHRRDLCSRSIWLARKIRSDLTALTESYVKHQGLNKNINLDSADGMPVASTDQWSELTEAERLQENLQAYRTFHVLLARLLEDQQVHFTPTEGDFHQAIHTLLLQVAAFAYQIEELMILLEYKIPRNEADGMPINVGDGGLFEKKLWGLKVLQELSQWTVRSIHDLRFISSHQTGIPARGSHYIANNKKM

IL-11 protein [11] = molecular target: T1, IL-11 protein; test: ELISA, monoclonal hybridoma supernatant on IL-11
Source text: as §1

[12] = molecular target: T4, recombinant CLC (R&D systems, …); test: ELISA, cytokine coated; remark: listed apart in the source
[13] = molecular target: T5, recombinant IL-6 …; test: ELISA, cytokine coated; remark: listed apart in the source
[14] = molecular target: T6, recombinant CT-1 (R&D systems, …); test: ELISA, cytokine coated; remark: listed apart in the source
[15] = molecular target: T7, recombinant IL-27 (R&D systems, …); test: ELISA, cytokine coated; remark: listed apart in the source
[16] = molecular target: T8, recombinant LIF (Peprotech, 300-05); test: ELISA, cytokine coated; remark: listed apart in the source
[17] = molecular target: T9, recombinant OSM (Genscript-z03132); test: ELISA, cytokine coated; remark: listed apart in the source
[18] = molecular target: T10, recombinant IL-31 (Peprotech, 200-31); test: ELISA, cytokine coated; remark: listed apart in the source
[19] = molecular target: T12, recombinant IL-11 (LSBio, LS-G132887-10) (UniProt P20809 22-199); test: ELISA, cytokine coated
T12 construct: also called IL-11 cytokine
T12 sequence (looked up): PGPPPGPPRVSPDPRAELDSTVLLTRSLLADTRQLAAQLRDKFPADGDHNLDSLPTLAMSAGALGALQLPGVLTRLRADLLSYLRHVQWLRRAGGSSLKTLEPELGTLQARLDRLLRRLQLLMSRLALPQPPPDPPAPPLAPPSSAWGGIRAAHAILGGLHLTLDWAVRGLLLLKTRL

[20] = molecular target: T11, recombinant CNTF (R&D systems, …); test: ELISA, cytokine coated; remark: listed apart in the source

T8 sequence (P15018 23-202 limits assumed): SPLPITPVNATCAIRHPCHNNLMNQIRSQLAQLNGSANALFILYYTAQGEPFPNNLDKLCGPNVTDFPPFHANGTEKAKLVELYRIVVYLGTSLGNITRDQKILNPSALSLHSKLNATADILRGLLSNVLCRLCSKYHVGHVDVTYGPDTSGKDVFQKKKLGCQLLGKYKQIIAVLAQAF

FITC Mean (IL-11 protein [1]): 3040 | Kd [2]: 0.0393 nM | koff [2]: 4.16e-05 s⁻¹ | kon [2]: 1.06e+06 M⁻¹ s⁻¹ | IC50 (IL-11-Fc protein): ~7 µg/mL | binding result [3]: no binding | binding result [4]: no binding | binding result [5]: no binding | binding result [6]: no binding | binding result [7]: no binding | binding result [8]: no binding | binding result [9]: no binding | binding result [10]: no binding | OD450 (IL-11 protein [11]): 1.58 | OD450 nm [12]: 0.042 | OD450 nm [13]: 0.039 | OD450 nm [14]: 0.041 | OD450 nm [15]: 0.035 | OD450 nm [16]: 0.084 | OD450 nm [17]: 0.102 | OD450 nm [18]: 0.088 | OD450 nm [19]: 1.88 | OD450 nm [20]: 0.064
B1: 3-6A4 (antibody, human IgG1, kappa, V domains shown)
VH: QIQLVQSGPELKKPGETVKISCKASGYTFTTNGINWVKQAAGKGLKWMGWINTNTGEPTNAEELKGRFAFSLETSASTAYLQINNLKNEDAAIYFCAREGAFGLDYWGQGTSVTVSS
VL: SIVMTQSPKFLLVSAGDRVIITCKASQSVSNDVVWYQQKPGQSPKLLIYYGSHRNTGVPTRFTGSGYGTDFTFTISTVQAEDLAVYFCQQDFFSPWTFGGGTKLEIKR
notes: also called 3-6A4 antibody; 3-6A4 mAb
